Source: the supplement of paper PMC7877785
± gives the uncertainty stated by the source.

Experiment: self-splicing fitness, log relative to wild type (ln ratio); higher = more splicing; Tetrahymena group I intron in knt gene, E. coli kanamycin selection, DiMSum; sequences stand for … in CUCUCU…GGAGGGAAAAGUUAUCAGGCAUGCACCUGGUAGCUAGUCUUUAAACCAAUAGAUUGCAUCGGUUUAAAAGGCAAGACCGUCAAAUUGCGGGAAAGGGGUCAACAGCCGUUCAGUACCAAGUCUCAGGGGAAACUUUGAGAUGGCCUUGCAAAGGGUAUGGUAAUAAGCUGACGGACAUGGUCCUAACCACGCAGCCAAGUCCUAAGUCAACAGAUCUUCUGUUGAUAUGGAUGCAGUUCACAGACUAAAUGUCGGUCGGGGAAGAUGUAUUCUUCUCAUAAGAUAUAGUCGGACCUCUCCUUAAUGGGAGCUAGCGGAUGAAGUGAUGCAACACUGGAGCCGCUGGGAACUAAUUUGUAUGCGAAAGUAUAUUGAUUAGUUUUGGAGUACUCGUGGUCG
Method in brief: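 Pooled colonies went to amplicon sequencing on an Illumina HiSeq 2500 after six replicate transformations. The plates were LB agar with 100 μg/mL carbenicillin, 50 μM IPTG and 0.2% rhamnose, with or without 25 μg/mL kanamycin, incubated overnight at 37°C or 30°C. The E. coli BL21(DE3) library had all eight P1ex-region intron nucleotides randomised, the intron placed in the knt kanamycin-resistance gene on pET-22b(+). DiMSum fitness is the error-weighted combination of replicate fold changes, kanamycin against none, normalised to wild type.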

| Sequence | self-splicing fitness (ln) (30 °C) | self-splicing fitness (ln) (37 °C) |
| --- | --- | --- |
| CGGUAGCAAUAUUACGAUGA | -1.38 ± 0.13 | -0.66 ± 0.16 |
| UAUUAGCAAUAUUACGCUUC | -3.43 ± 0.44 | -2.84 ± 0.38 |
| GGACAGCAAUAUUACGGUGG | -1.71 ± 0.11 | -1.53 ± 0.14 |
| CUCGAGCAAUAUUACGAGGG | -3.45 ± 0.28 | -1.83 ± 0.35 |
| ACUGAGCAAUAUUACGAGUC | -3.18 ± 0.23 | -3.2 ± 0.28 |
| AGCCAGCAAUAUUACGUAAU | -1.71 ± 0.11 | -0.608 ± 0.12 |
| GCGCAGCAAUAUUACGGCAG | -3.47 ± 0.15 | -2.85 ± 0.19 |
| UUUUAGCAAUAUUACGUAGA | -2.06 ± 0.22 | -0.71 ± 0.24 |
| GUCCAGCAAUAUUACGAUAG | -3.53 ± 0.14 | -2.89 ± 0.17 |
| UAAAAGCAAUAUUACGGAGC | -4.1 ± 0.25 | -3.36 ± 0.28 |
| GCAUAGCAAUAUUACGAGUU | -3.15 ± 0.13 | -1.33 ± 0.1 |
| UUAUAGCAAUAUUACGUUAC | -4.01 ± 0.43 | -3.56 ± 0.37 |
| GCCAAGCAAUAUUACGCCGC | -2.92 ± 0.31 | -1.02 ± 0.28 |
| AUCGAGCAAUAUUACGAGAU | -2.58 ± 0.13 | -2.01 ± 0.17 |
| CUCUAGCAAUAUUACGUUGC | -3.71 ± 0.3 | -3.08 ± 0.35 |
| UGUGAGCAAUAUUACGAUCA | -0.397 ± 0.23 | -0.874 ± 0.32 |
| GCCAAGCAAUAUUACGAUGC | -1.7 ± 0.09 | -0.188 ± 0.11 |
| GUAAAGCAAUAUUACGCGCG | -0.817 ± 0.14 | -0.615 ± 0.24 |
| AUUGAGCAAUAUUACGAUAG | -4.02 ± 0.28 | -3.03 ± 0.3 |
| UGUUAGCAAUAUUACGUCUU | -2.21 ± 0.15 | -1.46 ± 0.13 |
| CACCAGCAAUAUUACGAAGC | -3.27 ± 0.15 | -2 ± 0.14 |
| ACCGAGCAAUAUUACGAAGG | -2.76 ± 0.17 | -2.7 ± 0.28 |
| AACGAGCAAUAUUACGAGUC |  | -2.63 ± 0.44 |
| GAAAAGCAAUAUUACGAGCA | -0.889 ± 0.063 | -0.307 ± 0.076 |
| ACACAGCAAUAUUACGUGCC | -1.71 ± 0.12 | -0.549 ± 0.093 |
| UAGGAGCAAUAUUACGGAGU | -1.77 ± 0.36 |  |
| AUGUAGCAAUAUUACGAAGG | -3.73 ± 0.34 | -2.61 ± 0.3 |

| Sequence | self-splicing fitness (ln) (30 °C) | self-splicing fitness (ln) (37 °C) |
| --- | --- | --- |
| GCUUAGCAAUAUUACGAUAU | -1.67 ± 0.18 | -0.39 ± 0.17 |
| UCCAAGCAAUAUUACGUAUA | -2.19 ± 0.094 | -1.29 ± 0.096 |
| GCGGAGCAAUAUUACGUGGC | -2.82 ± 0.18 | -3.01 ± 0.43 |
| CUACAGCAAUAUUACGACAG | -0.672 ± 0.088 | 0.096 ± 0.11 |
| GUAUAGCAAUAUUACGGCGU | -0.696 ± 0.13 | 0.267 ± 0.19 |
| CAGAAGCAAUAUUACGCGUA | -2.63 ± 0.27 | -1.69 ± 0.15 |
| ACUCAGCAAUAUUACGGGCG | -0.574 ± 0.044 | 0.27 ± 0.062 |
| UCUAAGCAAUAUUACGUCUU | -4.03 ± 0.27 | -4.18 ± 0.46 |
| ACGUAGCAAUAUUACGAAGA | -2.85 ± 0.41 | -0.644 ± 0.16 |
| CUGCAGCAAUAUUACGACGC | -3.79 ± 0.27 | -3.06 ± 0.29 |
| AGGAAGCAAUAUUACGAUGG | -2.53 ± 0.16 | -1.88 ± 0.21 |
| GCCCAGCAAUAUUACGUAUU | -2.02 ± 0.066 | -0.786 ± 0.074 |
| UCAAAGCAAUAUUACGAUUC | -3.67 ± 0.27 | -2.63 ± 0.28 |
| AGGUAGCAAUAUUACGAAGU | -3.22 ± 0.026 | -1.56 ± 0.037 |
| AAUUAGCAAUAUUACGUUGG | -3.34 ± 0.17 | -2.56 ± 0.16 |
| GUAUAGCAAUAUUACGCACU | -1.9 ± 0.16 | -0.384 ± 0.14 |
| UUUAAGCAAUAUUACGGAUG | -1.56 ± 0.1 | -0.852 ± 0.13 |
| CUUCAGCAAUAUUACGCUCC | -2.61 ± 0.26 |  |
| CAAUAGCAAUAUUACGGGCG | 0.548 ± 0.093 | 0.28 ± 0.11 |
| UUUGAGCAAUAUUACGGAAA | -2.01 ± 0.21 | -1.95 ± 0.24 |
| UACCAGCAAUAUUACGCCUC | -2.32 ± 0.19 | -0.554 ± 0.18 |
| UGGUAGCAAUAUUACGUAAU | -1.61 ± 0.19 | -0.903 ± 0.16 |
| CAAGAGCAAUAUUACGAGUG | -1.46 ± 0.089 | -1.23 ± 0.12 |
| UCACAGCAAUAUUACGAAGC | -3.07 ± 0.21 |  |
| GGUUAGCAAUAUUACGGGGG |  | -2.37 ± 0.44 |
| UCGGAGCAAUAUUACGGAAG |  | -0.371 ± 0.41 |
| ACUGAGCAAUAUUACGAGCA | -2.63 ± 0.27 | -1.42 ± 0.19 |

| Sequence | self-splicing fitness (ln) (30 °C) | self-splicing fitness (ln) (37 °C) |
| --- | --- | --- |
| UCUCAGCAAUAUUACGAAGU | -2.33 ± 0.26 | -0.109 ± 0.16 |
| UCGUAGCAAUAUUACGUAUA | -2.92 ± 0.31 | -1.01 ± 0.28 |
| UUGCAGCAAUAUUACGCGGC |  | -2.28 ± 0.46 |
| CCUGAGCAAUAUUACGUGGU | -3.09 ± 0.16 | -2.94 ± 0.21 |
| ACCCAGCAAUAUUACGUUGG | -3.6 ± 0.1 | -2.16 ± 0.11 |
| CGGGAGCAAUAUUACGCGAC | -3.85 ± 0.29 | -1.59 ± 0.36 |
| CCUAAGCAAUAUUACGACCA | -3.19 ± 0.21 | -1.46 ± 0.17 |
| AUUGAGCAAUAUUACGACAU | -0.372 ± 0.013 | -0.153 ± 0.033 |
| ACCGAGCAAUAUUACGUGCA | -2.45 ± 0.13 | -1.79 ± 0.12 |
| CUUCAGCAAUAUUACGCUAA | -3.37 ± 0.26 | -2.3 ± 0.3 |
| ACGGAGCAAUAUUACGGUUG | -3.93 ± 0.31 | -2.22 ± 0.18 |
| UAUCAGCAAUAUUACGUUGU | -3.84 ± 0.19 | -2.62 ± 0.21 |
| GCGGAGCAAUAUUACGCGCU | -1.88 ± 0.4 |  |
| UCCCAGCAAUAUUACGCGGG | -2.66 ± 0.12 | -3.36 ± 0.18 |
| UUAGAGCAAUAUUACGGAUA | -2.47 ± 0.31 |  |
| GUAAAGCAAUAUUACGACGG | -3.85 ± 0.29 | -2.28 ± 0.23 |
| GUGGAGCAAUAUUACGCGGG | -2.34 ± 0.36 | -2.06 ± 0.47 |
| CAAUAGCAAUAUUACGGACG | -0.294 ± 0.058 | 0.146 ± 0.075 |
| GGAUAGCAAUAUUACGAGAC | -2.63 ± 0.25 | -2.63 ± 0.48 |
| UCUAAGCAAUAUUACGGUCC |  | -0.662 ± 0.27 |
| UAAAAGCAAUAUUACGCCCU | -0.622 ± 0.095 | 0.457 ± 0.15 |
| AACAAGCAAUAUUACGUAAG | -1.93 ± 0.058 | -1.16 ± 0.077 |
| CGCUAGCAAUAUUACGAAGA | -2.12 ± 0.46 |  |
| GCGCAGCAAUAUUACGGCAC | -0.436 ± 0.11 | -0.634 ± 0.13 |
| GAGCAGCAAUAUUACGAGAC | -2.97 ± 0.3 | -0.985 ± 0.2 |
